What is called Kd is a measure of binding affinity in units of concentration. As a reminder, the Ki is a measure of affinity in units of concentration, obtained from inhibition or displacement.

Our source for the Kd and Ki values is patent US20040241754A1, “Modulating neuronal plasticity” (The Salk Institute for Biological Studies, priority 2003, published 2004).

Assay [1] deals with EphB1. The following applies: read-out: Kd for binding to EphB1; cited from earlier work.
Assay [2] deals with EphA3. The following applies: read-out: Kd for binding to EphA3; cited from earlier work.
Assay [3] has as its target EphA2 (Homo sapiens, UniProt P29317). The following applies: read-out: Kd for binding to EphA2; cited from earlier work.
The target of assay [4] is T1, EphB4 (Homo sapiens, UniProt P54760).
T1 sequence (P54760 16-987): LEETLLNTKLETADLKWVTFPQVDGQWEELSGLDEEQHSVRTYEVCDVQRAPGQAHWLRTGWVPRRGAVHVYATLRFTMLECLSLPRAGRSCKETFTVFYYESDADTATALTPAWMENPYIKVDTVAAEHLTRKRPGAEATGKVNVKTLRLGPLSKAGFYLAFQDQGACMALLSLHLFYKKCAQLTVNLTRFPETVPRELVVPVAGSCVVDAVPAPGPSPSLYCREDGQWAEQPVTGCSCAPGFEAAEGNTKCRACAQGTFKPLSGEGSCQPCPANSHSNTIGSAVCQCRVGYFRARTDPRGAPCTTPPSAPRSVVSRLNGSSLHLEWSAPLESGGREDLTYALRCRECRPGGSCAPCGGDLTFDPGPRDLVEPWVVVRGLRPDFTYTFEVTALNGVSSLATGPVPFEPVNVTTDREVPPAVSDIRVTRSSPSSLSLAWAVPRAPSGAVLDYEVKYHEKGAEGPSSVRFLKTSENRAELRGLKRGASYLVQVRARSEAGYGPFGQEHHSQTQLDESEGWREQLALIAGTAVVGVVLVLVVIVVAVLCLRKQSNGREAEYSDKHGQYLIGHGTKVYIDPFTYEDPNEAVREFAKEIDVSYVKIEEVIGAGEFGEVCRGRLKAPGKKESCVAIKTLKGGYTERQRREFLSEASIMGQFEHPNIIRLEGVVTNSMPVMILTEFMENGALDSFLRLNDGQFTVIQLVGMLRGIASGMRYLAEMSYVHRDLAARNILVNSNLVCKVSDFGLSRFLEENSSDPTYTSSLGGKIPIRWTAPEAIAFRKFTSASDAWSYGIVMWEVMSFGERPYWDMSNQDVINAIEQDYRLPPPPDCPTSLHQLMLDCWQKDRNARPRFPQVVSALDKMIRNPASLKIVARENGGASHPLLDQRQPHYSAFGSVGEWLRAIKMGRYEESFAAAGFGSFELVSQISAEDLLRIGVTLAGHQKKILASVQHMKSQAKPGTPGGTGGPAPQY
The following applies: read-out: Kd for binding to EphB4; cited from earlier work.

In assay [5] the target is T2, His-GRIP(PDZ4-6) (rat, UniProt P97879 448-792).
T2 construct: range 448-792; not shown: His tag and vector residues from pRSET
T2 sequence (looked up): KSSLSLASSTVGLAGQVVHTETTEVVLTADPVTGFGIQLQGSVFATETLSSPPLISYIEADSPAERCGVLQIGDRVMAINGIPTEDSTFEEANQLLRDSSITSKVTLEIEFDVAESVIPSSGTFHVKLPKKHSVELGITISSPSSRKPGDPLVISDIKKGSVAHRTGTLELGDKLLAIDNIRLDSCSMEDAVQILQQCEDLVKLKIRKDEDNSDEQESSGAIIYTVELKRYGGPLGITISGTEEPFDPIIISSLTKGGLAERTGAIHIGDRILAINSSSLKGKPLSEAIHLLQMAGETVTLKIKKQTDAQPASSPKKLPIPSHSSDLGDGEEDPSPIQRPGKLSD
As to the kind of experiment: displacement of ^35S-EphB2 (50 nM) from His-GRIP-PDZ4-6, Hill fit.

Assay [6] concerns the target T3, His-GRIP-PDZ6 (UniProt P97879 672-754).
T3 construct: domain: PDZ 6; also called GRIP fragment containing only the PDZ 6 domain; PDZ domain 6 of GRIP; not shown: His tag
T3 sequence (looked up): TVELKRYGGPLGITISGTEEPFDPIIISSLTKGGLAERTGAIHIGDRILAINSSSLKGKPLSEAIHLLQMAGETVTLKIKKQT
The assay can be described thus: displacement of ^35S-EphB2 from His-GRIP-PDZ6.

Assay [7] concerns the target EphA4 (Homo sapiens, UniProt P54764). The note with it: read-out: Kd for binding to EphA4; cited from earlier work.

Chain of EphA4 (P54764 20-986, species assumed): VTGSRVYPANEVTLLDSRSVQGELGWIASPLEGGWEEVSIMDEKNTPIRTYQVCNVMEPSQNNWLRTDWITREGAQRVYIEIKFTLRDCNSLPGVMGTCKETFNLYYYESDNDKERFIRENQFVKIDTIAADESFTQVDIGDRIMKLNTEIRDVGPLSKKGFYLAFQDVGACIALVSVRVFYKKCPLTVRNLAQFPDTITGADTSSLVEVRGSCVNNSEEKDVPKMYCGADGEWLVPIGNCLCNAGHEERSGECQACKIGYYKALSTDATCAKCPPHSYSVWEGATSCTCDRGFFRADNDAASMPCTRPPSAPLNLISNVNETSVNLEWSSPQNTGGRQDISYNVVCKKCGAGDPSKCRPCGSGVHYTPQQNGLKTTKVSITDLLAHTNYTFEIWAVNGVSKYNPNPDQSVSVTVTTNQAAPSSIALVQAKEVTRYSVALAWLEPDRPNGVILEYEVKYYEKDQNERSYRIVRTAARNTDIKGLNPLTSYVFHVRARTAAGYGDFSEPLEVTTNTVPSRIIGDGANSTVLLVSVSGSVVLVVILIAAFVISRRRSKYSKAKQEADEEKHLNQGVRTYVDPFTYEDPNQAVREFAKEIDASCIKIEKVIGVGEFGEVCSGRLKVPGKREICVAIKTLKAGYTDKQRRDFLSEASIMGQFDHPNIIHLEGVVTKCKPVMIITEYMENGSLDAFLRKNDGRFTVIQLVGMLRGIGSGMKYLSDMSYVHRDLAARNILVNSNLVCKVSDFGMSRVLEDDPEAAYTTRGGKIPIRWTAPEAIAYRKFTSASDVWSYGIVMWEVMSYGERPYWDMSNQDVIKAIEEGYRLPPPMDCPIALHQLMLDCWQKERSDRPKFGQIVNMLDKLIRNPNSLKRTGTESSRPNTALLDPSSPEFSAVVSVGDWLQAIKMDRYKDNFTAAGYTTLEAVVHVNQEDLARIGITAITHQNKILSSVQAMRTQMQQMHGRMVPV
Chain of EphA2 (P29317 24-976): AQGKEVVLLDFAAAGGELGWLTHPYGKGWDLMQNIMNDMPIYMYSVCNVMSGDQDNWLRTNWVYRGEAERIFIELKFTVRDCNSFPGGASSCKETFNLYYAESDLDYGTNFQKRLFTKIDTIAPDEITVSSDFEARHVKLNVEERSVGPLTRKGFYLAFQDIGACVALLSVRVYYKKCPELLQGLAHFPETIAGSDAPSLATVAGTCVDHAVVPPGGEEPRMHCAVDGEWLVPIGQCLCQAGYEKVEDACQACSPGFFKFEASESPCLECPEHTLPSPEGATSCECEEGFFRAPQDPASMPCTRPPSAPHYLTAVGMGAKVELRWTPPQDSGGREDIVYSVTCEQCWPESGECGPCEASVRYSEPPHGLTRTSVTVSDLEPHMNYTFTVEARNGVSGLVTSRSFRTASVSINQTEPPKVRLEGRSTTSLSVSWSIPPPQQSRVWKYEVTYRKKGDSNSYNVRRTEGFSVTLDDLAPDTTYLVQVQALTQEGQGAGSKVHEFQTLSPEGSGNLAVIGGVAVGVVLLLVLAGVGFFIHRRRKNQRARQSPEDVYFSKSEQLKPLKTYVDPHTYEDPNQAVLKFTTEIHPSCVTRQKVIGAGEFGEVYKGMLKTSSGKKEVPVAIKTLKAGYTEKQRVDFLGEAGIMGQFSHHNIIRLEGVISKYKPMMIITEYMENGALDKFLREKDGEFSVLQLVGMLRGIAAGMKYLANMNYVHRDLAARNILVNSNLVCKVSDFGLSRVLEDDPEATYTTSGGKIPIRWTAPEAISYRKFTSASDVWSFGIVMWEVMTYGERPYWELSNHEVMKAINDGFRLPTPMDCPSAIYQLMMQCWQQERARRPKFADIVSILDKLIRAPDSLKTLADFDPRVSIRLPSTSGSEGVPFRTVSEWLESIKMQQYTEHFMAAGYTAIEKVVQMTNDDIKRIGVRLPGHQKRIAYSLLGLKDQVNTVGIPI

B1: ephrin-B1: a 45 kDa, 346 amino acid glycosylated polypeptide; ephrin ligand (protein, UniProt P98172 1-346, looked up)
chain: MARPGQRWLGKWLVAMVVWALCRLATPLAKNLEPVSWSSLNPKFLSGKGLVIYPKIGDKLDIICPRAEAGRPYEYYKLYLVRPEQAAACSTVLDPNVLVTCNRPEQEIRFTIKFQEFSPNYMGLEFKKHHDYYITSTSNGSLEGLENREGGVCRTRTMKIIMKVGQDPNAVTPEQLTTSRPSKEADNTVKMATQAPGSRGSLGDSDGKHETVNQEEKSGPGASGGSSGDPDGFFNSKVALFAAVGAGCVIFLLIIIFLTVLLLKLRKRHRKHTQQRAAALSLSTLASPKGGSGTAGTEPSDIIIPLRTTENNYCPHYEKVSGDYGHPVYIVQEMPPQSPANIYYKV
modifications: full-length
notes: a 45 kDa, 346 amino acid glycosylated polypeptide; ephrin ligand
Regarding B1, the dissociation constant Kd is 0.925 nM in assay [1] and 350 nM in assay [2].

B2: ephrin-A1: a 25 kDa, 205 amino acid glycoprotein; ephrin ligand (protein, UniProt P20827 1-205, looked up)
chain: MEFLWAPLLGLCCSLAAADRHTVFWNSSNPKFRNEDYTIHVQLNDYVDIICPHYEDHSVADAAMEQYILYLVEHEEYQLCQPQSKDQVRWQCNRPSAKHGPEKLSEKFQRFTPFTLGKEFKEGHSYYYISKPIHQHEDRCLRLKVTVSGKITHSPQAHDNPQEKRLAADDPEVRVLHSIGHSAAPRLFPLAWTVLLLPLLLLQTP
modifications: full-length
notes: a 25 kDa, 205 amino acid glycoprotein; ephrin ligand
Consider B2, for which, in assay [3], the dissociation constant (Kd) is 25 nM.

B3: ephrin-B2: a 38-42 kDa, 333 amino acid glycoprotein; ephrin ligand (protein, UniProt P52799 1-333, looked up)
chain: MAVRRDSVWKYCWGVLMVLCRTAISKSIVLEPIYWNSSNSKFLPGQGLVLYPQIGDKLDIICPKVDSKTVGQYEYYKVYMVDKDQADRCTIKKENTPLLNCAKPDQDIKFTIKFQEFSPNLWGLEFQKNKDYYIISTSNGSLEGLDNQEGGVCQTRAMKILMKVGQDASSAGSTRNKDPTRRPELEAGTNGRSSTTSPFVKPNPGSSTDGNSAGHSGNNILGSEVALFAGIASGCIIFIVIIITLVVLLLKYRRRHRKHSPQHTTTLSLSTLATPKRSGNNNGSEPSDIIIPLRTADSVFCPHYEKVSGDYGHPVYIVQEMPPQSPANIYYKV
modifications: full-length
notes: a 38-42 kDa, 333 amino acid glycoprotein; ephrin ligand
B3: in assay [4], the dissociation constant (Kd) was 0.535 nM.

NVYGIESVKI (also called GluR2ct; R2ct) [GluR2 carboxy terminal peptide]: the Ki amounted to 106 nM in assay [5] and 155 nM in assay [6].

B4: ephrin-A4: a 201 amino acid polypeptide; ephrin ligand (protein, UniProt P52798 26-170, looked up)
Ephrin-A4: LRHVVYWNSSNPRLLRGDAVVELGLNDYLDIVCPHYEGPGPPEGPETFALYMVDWPGYESCQAEGPRAYKRWVCSLPFGHVQFSEKIQRFTPFSLGFEFLPGETYYYISVPTPESSGQCLRLQVSVCCKERKSESAHPVGSPGES
For B4, the Kd in assay [7] is 5 nM; in assay [1], 20 nM.
